Measurements reported in paper PMC6361588, “Exploration of CTCF post-translation modifications uncovers Serine-224 phosphorylation by PLK1 at pericentric regions during the G2/M transition”.

Legend:
FLAG-CTCF(S224E)-6xHis = biological target: T1, FLAG-CTCF(S224E)-6xHis (UniProt Q61164 1-736, S224E); test: EMSA; 0.5, 1 or 2 pmol protein; EMSA as in Sun et al., 2013; buffer, salt, pH and temperature not given in the material; details: protein: recombinant; tags: N-terminal FLAG, C-terminal 6xHis; blunt
T1 sequence: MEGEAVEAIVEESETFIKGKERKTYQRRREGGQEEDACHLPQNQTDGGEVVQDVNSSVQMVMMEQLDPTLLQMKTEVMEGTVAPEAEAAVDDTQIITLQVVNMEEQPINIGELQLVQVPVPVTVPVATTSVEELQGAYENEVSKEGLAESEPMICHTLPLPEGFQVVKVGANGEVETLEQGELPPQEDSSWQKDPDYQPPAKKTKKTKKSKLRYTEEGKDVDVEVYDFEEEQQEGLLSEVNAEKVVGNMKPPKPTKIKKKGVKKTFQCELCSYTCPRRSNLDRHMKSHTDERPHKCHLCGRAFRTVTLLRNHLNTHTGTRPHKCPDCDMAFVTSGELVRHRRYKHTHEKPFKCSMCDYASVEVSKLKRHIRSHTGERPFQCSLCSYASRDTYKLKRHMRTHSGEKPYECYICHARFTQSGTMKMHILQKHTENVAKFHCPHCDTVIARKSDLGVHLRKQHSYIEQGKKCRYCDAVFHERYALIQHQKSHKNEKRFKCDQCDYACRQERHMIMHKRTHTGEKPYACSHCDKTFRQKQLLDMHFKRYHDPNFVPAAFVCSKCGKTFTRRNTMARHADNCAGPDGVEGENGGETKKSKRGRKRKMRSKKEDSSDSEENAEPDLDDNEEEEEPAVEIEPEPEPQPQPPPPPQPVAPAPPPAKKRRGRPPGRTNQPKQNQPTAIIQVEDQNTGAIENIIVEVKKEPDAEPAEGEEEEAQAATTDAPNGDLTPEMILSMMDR

FLAG-CTCF(S224A)-6xHis = biological target: T2, FLAG-CTCF(S224A)-6xHis (UniProt Q61164 1-736, S224A); test: as above; details: protein: recombinant; tags: N-terminal FLAG, C-terminal 6xHis; blunt
T2 sequence: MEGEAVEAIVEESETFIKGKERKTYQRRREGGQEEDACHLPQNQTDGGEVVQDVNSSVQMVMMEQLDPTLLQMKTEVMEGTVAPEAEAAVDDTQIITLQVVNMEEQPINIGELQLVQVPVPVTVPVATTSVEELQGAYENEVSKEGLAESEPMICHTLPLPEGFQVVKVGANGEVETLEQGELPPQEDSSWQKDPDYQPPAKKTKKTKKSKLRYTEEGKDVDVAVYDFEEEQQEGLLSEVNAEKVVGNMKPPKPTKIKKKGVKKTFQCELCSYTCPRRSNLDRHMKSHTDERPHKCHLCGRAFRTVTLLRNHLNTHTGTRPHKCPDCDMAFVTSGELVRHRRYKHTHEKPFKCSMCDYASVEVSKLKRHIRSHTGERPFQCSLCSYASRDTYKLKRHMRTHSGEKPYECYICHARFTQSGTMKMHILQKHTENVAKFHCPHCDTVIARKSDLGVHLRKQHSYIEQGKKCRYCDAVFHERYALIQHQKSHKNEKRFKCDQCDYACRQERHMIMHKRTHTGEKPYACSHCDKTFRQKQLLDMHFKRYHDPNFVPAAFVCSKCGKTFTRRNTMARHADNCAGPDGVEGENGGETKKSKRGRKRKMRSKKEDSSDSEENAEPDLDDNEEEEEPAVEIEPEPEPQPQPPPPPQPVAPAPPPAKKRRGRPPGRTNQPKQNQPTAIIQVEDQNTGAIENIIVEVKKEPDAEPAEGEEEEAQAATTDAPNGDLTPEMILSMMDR

B1: RS14C (dsDNA)
DNA 1: CTATGCATTAGGTTTGGGTGTTATACCCGTGTAGGCCAGCAGAGGGTGTCGGATCCCAAGGAAACCAAGTTACAGACGCC
DNA 2: GGCGTCTGTAACTTGGTTTCCTTGGGATCCGACACCCTCTGCTGGCCTACACGGGTATAACACCCAAACCTAATGCATAG
binding result (FLAG-CTCF(S224E)-6xHis): binds | binding result (FLAG-CTCF(S224A)-6xHis): binds

B2: RS14C mutant (dsDNA)
DNA 1: CTATGCATTAGGTTTGGGTGTTATACCCGTGTAGGCTAGCACAGTGTGTCGGATCCCAAGGAAACCAAGTTACAGACGCC
DNA 2: GGCGTCTGTAACTTGGTTTCCTTGGGATCCGACACACTGTGCTAGCCTACACGGGTATAACACCCAAACCTAATGCATAG
binding result (FLAG-CTCF(S224E)-6xHis): no binding | binding result (FLAG-CTCF(S224A)-6xHis): no binding
